B1: Twister Ribozyme (parent)
chain: AACACUGCCAAUGCCGGUCCCAAGCCCGGAUAAAAGUGGAGGGGGCGG

Variants of: B1
Assay: self-cleavage, relative activity (ratio to wild type); higher = more cleavage; co-transcriptional

Variant | self-cleavage
C19U A23G | 0.219
C19U A23U | 0.203
C19G G42C | 0.139
C19G G42U | 0.0912
U18G | 0.0785
U18C | 0.664
U18A G38U | 0.144
U18G A22C | 0.0631
U18C C26A | 0.0527
U18G G48A | 0.0606
U18G G48C | 0.111
U18G G47C | 0.0806
U18A C21U | 0.0595
U18A G44U | 0.543
C19A A22G | 0.0827
C19G A32C | 0.386
C19G A32U | 0.287
C20A G38A | 0.0955
C20G C25G | 0.0818
C19U G36A | 0.167
C19U G36U | 0.127
C19U G48U | 0.91
C19U G48C | 1.04
C20A A22C | 0.126

Variant | self-cleavage
C19U G24C | 0.126
U18G G24U | 0.0765
C20A U31A | 0.14
C19G C21G | 0.0223
C19U U37A | 0.406
C19U U37G | 0.621
C19A G47U | 0.131
U18C C20U | 0.375
U18G A33G | 0.0866
U18G A33C | 0.0995
C19U G45U | 0.563
C20A C26G | 0.105
C19G U37G | 0.0722
C19A A35C | 0.313
C19A A35U | 0.29
U18G G29U | 0.0942
U18G G29A | 0.089
U18C G42U | 0.0957
U18C G42A | 0.0575
U18C C21A | 0.0881
U18C C21U | 0.0707
C19U C27U | 0.802
U18A G43U | 0.125
U18A G43C | 0.144

Variant | self-cleavage
U18G C26U | 0.0716
U18G C26A | 0.0682
C19A G44U | 0.679
C19A G44C | 0.746
U18G G42U | 0.0585
U18G G42A | 0.0696
U18G G42C | 0.0775
C19U A32C | 1.05
C19U A32G | 0.855
C20G A34G | 0.0924
C20G A34U | 0.074
C20G C27A | 0.102
C20G C27U | 0.0791
C20G C27G | 0.0793
U18A G41C | 0.0769
U18A G41U | 0.125
C19A C26G | 0.0718
C19A C26A | 0.0793
U18A G45A | 0.32
U18A G45C | 0.155
U18G C20U | 0.102
U18A C27U | 0.385
C19U C25A | 0.113
U18G C27G | 0.0399

Variant | self-cleavage
U18G C27U | 0.0822
U18G C27A | 0.0641
C19A G38C | 0.0851
U18A U31A | 0.584
C20G C46U | 0.119
C20G C46A | 0.12
C20G G45U | 0.0778
C20G G45A | 0.102
C20A A35G | 0.0546
C19A A23U | 0.114
C19A A23G | 0.0964
U18C G41C | 0.0753
U18C G41U | 0.13
C19A G45C | 0.233
U18A G42A | 0.104
U18A G42C | 0.215
C20A G48A | 0.104
C20A G48U | 0.142
U18G A34G | 0.079
C20A A23G | 0.0659
C20A A23U | 0.0802
C20A G39A | 0.114
C19U G42A | 0.17
C19U G42C | 0.221

Variant | self-cleavage
C19G C27U | 0.131
U18G G45U | 0.0852
U18G G45C | 0.0995
U18G G45A | 0.0963
C20G G47A | 0.111
C20G G47C | 0.133
C20G G47U | 0.131
U18C G29C | 0.0613
U18C G29U | 0.27
C19U C20U | 0.327
C19U C20G | 0.0718
C19U C20A | 0.107
C19A C25U | 0.0834
U18G G28A | 0.0711
U18G G28C | 0.102
C19G C20G | 0.0478
C19U G28U | 0.822
C19U G28A | 0.758
C19A G41A | 0.0916
U18A U37G | 0.137
U18A U37A | 0.0711
U18C C19G | 0.0747
U18C C19U | 0.247
U18A C26U | 0.158

Variant | self-cleavage
U18A C26A | 0.313
C20G A23C | 0.118
C20G A23U | 0.121
U18A G48A | 0.279
U18C A32U | 0.464
C19G G45U | 0.174
C19G G45C | 0.231
C19A G36C | 0.0909
C19A G36U | 0.0959
C19A G48C | 0.149
C19A G48A | 0.161
C19U G41A | 0.134
C19U G41C | 0.104
U18C G24A | 0.0865
C20A A30G | 0.114
C19G G24U | 0.0534
C20A A32C | 0.111
C20A A32G | 0.145
C19A C46U | 0.304
C19A C46G | 0.177
U18C G47C | 0.162
U18C G47A | 0.288
U18C G47U | 0.288
U18G G38A | 0.0601

Variant | self-cleavage
C19G G29A | 0.258
C19G G47U | 0.138
U18C A30U | 0.512
C19A A33G | 0.155
C19A G43A | 0.355
C19A G43U | 0.732
U18G G41C | 0.0434
C19G G36U | 0.099
U18G G43U | 0.0664
U18G G36U | 0.083
C19G G38C | 0.152
C19G G38U | 0.0929
C19G C46G | 0.165
C19G C46U | 0.359
C20A A34U | 0.0698
C20A A34G | 0.104
C20A C46G | 0.0871
C19U G47U | 0.39
C19U G47A | 0.763
U18C G28A | 0.181
U18C G28C | 0.124
U18C A35C | 0.641
U18C A35G | 0.139

— the RNAGym collection of RNA variant scans (doi:10.7554/elife.80360)
